Laboratory results as given in article PMC12126155 (Molecular cell, 2025).

Molecular target: histone H4 (X. laevis), as in the H3K4Cme3 nucleosome (X. laevis, UniProt P62799 1-103)
Test: cryo-EM structure

binding result: binds
B1: H. sapiens Chromodomain Helicase DNA Binding Protein 1 (CHD1 residues 1-1327 lacking the CHCT domain) (enzyme)
chain: MNGHSDEESVRNSSGESSQSDDDSGSASGSGSGSSSGSSSDGSSSQSGSSDSDSGSESGSQSESESDTSRENKVQAKPPKVDGAEFWKSSPSILAVQRSAILKKQQQQQQQQQHQASSNSGSEEDSSSSEDSDDSSSEVKRKKHKDEDWQMSGSGSPSQSGSDSESEEEREKSSCDETESDYEPKNKVKSRKPQNRSKSKNGKKILGQKKRQIDSSEEDDDEEDYDNDKRSSRRQATVNVSYKEDEEMKTDSDDLLEVCGEDVPQPEEEEFETIERFMDCRIGRKGATGATTTIYAVEADGDPNAGFEKNKEPGEIQYLIKWKGWSHIHNTWETEETLKQQNVRGMKKLDNYKKKDQETKRWLKNASPEDVEYYNCQQELTDDLHKQYQIVERIIAHSNQKSAAGYPDYYCKWQGLPYSECSWEDGALISKKFQACIDEYFSRNQSKTTPFKDCKVLKQRPRFVALKKQPSYIGGHEGLELRDYQLNGLNWLAHSWCKGNSCILADEMGLGKTIQTISFLNYLFHEHQLYGPFLLVVPLSTLTSWQREIQTWASQMNAVVYLGDINSRNMIRTHEWTHHQTKRLKFNILLTTYEILLKDKAFLGGLNWAFIGVDEAHRLKNDDSLLYKTLIDFKSNHRLLITGTPLQNSLKELWSLLHFIMPEKFSSWEDFEEEHGKGREYGYASLHKELEPFLLRRVKKDVEKSLPAKVEQILRMEMSALQKQYYKWILTRNYKALSKGSKGSTSGFLNIMMELKKCCNHCYLIKPPDNNEFYNKQEALQHLIRSSGKLILLDKLLIRLRERGNRVLIFSQMVRMLDILAEYLKYRQFPFQRLDGSIKGELRKQALDHFNAEGSEDFCFLLSTRAGGLGINLASADTVVIFDSDWNPQNDLQAQARAHRIGQKKQVNIYRLVTKGSVEEDILERAKKKMVLDHLVIQRMDTTGKTVLHTGSAPSSSTPFNKEELSAILKFGAEELFKEPEGEEQEPQEMDIDEILKRAETHENEPGPLTVGDELLSQFKVANFSNMDEDDIELEPERNSKNWEEIIPEDQRRRLEEEERQKELEEIYMLPRMRNCAKQISFNGSEGRRSRSRRYSGSDSDSISEGKRPKKRGRPRTIPRENIKGFSDAEIRRFIKSYKKFGGPLERLDAIARDAELVDKSETDLRRLGELVHNGCIKALKDSSSGTERTGGRLGKVKGPTFRISGVQVNAKLVISHEEELIPLHKSIPSDPEERKQYTIPCHTKAAHFDIDWGKEDDSNLLIGIYEYGYGSWEMIKMDPDLSLTHKILPDDPDKKPQAKQLQTRADYLIKLLSRDLAKKEALSGAG
